The results in this text go back to the supplement of paper PMC10567573.

To fix the notation:
B1: C20orf112 (parent)
chain: YANGGLNYSYRGYGALSSNLQPPA
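Further: lentivirally expressed fusions sorted by FACS into six bins by GFP to DsRed ratio, PSI derived from sequencing read proportions per bin multiplied by bin number.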

The variants in the series derive from B1. The experiment in a line: protein stability index of a GFP-peptide fusion (GPS, HEK-293T) (PSI 1-6); higher = more stable. Conditions: c terminus: a fixed tail appended.
Regarding YANRGLNYSYRGYGALSSNLQPPA [G4R], the protein stability index worked out at 1.38.
Then YANCGLNYSYRGYGALSSNLQPPA [G4C], with 1.91; and YANPGLNYSYRGYGALSSNLQPPA [G4P], with 2.18; and YANSGLNYSYRGYGALSSNLQPPA [G4S], with 1.66.
Then YANFGLNYSYRGYGALSSNLQPPA [G4F], with 1.42.
As to YANEGLNYSYRGYGALSSNLQPPA [G4E], the protein stability index turned out to be 2.01.
With YANNGLNYSYRGYGALSSNLQPPA [G4N], the protein stability index came out at 2.02.
For YANVGLNYSYRGYGALSSNLQPPA [G4V] the value was 2.32; for YANTGLNYSYRGYGALSSNLQPPA [G4T], 1.98.
For YANAGLNYSYRGYGALSSNLQPPA [G4A] the value was 2.81; for YANWGLNYSYRGYGALSSNLQPPA [G4W], 1.99; for YANHGLNYSYRGYGALSSNLQPPA [G4H], 1.6.
For YANLGLNYSYRGYGALSSNLQPPA [G4L] the value was 2.01.
For YANKGLNYSYRGYGALSSNLQPPA [G4K], the protein stability index amounted to 2.4.
Then YANMGLNYSYRGYGALSSNLQPPA [G4M], with 1.48; and YANIGLNYSYRGYGALSSNLQPPA [G4I], with 1.93.
Then YANYGLNYSYRGYGALSSNLQPPA [G4Y], with 2.38; and YANDGLNYSYRGYGALSSNLQPPA [G4D], with 2.05; and YANQGLNYSYRGYGALSSNLQPPA [G4Q], with 2.06.
For DANGGLNYSYRGYGALSSNLQPPA [Y1D] the value was 2.9.
Turning to AANGGLNYSYRGYGALSSNLQPPA [Y1A], the protein stability index worked out at 3.08.
For PANGGLNYSYRGYGALSSNLQPPA [Y1P] the value was 2.43; for MANGGLNYSYRGYGALSSNLQPPA [Y1M], 2.87.
For NANGGLNYSYRGYGALSSNLQPPA [Y1N] the value was 3.08.
Regarding IANGGLNYSYRGYGALSSNLQPPA [Y1I], the protein stability index was 2.45.
Take SANGGLNYSYRGYGALSSNLQPPA [Y1S]: the protein stability index worked out at 3.12.
Then FANGGLNYSYRGYGALSSNLQPPA [Y1F], with 1.86; and GANGGLNYSYRGYGALSSNLQPPA [Y1G], with 3.16; and EANGGLNYSYRGYGALSSNLQPPA [Y1E], with 3.15.
For CANGGLNYSYRGYGALSSNLQPPA [Y1C] the value was 1.96; for LANGGLNYSYRGYGALSSNLQPPA [Y1L], 2.67.
Consider VANGGLNYSYRGYGALSSNLQPPA [Y1V], for which the protein stability index was determined as 2.2.
With TANGGLNYSYRGYGALSSNLQPPA [Y1T], the protein stability index was found to be 2.83.
As to WANGGLNYSYRGYGALSSNLQPPA [Y1W], the protein stability index was found to be 1.85.
In the case of QANGGLNYSYRGYGALSSNLQPPA [Y1Q], the protein stability index was determined as 3.32.
For KANGGLNYSYRGYGALSSNLQPPA [Y1K] the value was 2.96.
Then RANGGLNYSYRGYGALSSNLQPPA [Y1R], with 2.97; and HANGGLNYSYRGYGALSSNLQPPA [Y1H], with 2.64.
Then YANGGKNYSYRGYGALSSNLQPPA [L6K], with 1.57.
Take YANGGPNYSYRGYGALSSNLQPPA [L6P]: the protein stability index was 2.5.
For YANGGDNYSYRGYGALSSNLQPPA [L6D] the value was 1.9; for YANGGCNYSYRGYGALSSNLQPPA [L6C], 2.24.
Then YANGGVNYSYRGYGALSSNLQPPA [L6V], with 1.85.
Take YANGGWNYSYRGYGALSSNLQPPA [L6W]: the protein stability index was determined as 2.27.
Regarding YANGGANYSYRGYGALSSNLQPPA [L6A], the protein stability index worked out at 2.03.
As for YANGGTNYSYRGYGALSSNLQPPA [L6T], the protein stability index was 1.96.
For the variant YANGGMNYSYRGYGALSSNLQPPA [L6M], the protein stability index is 2.3.
Regarding YANGGINYSYRGYGALSSNLQPPA [L6I], the protein stability index was determined as 2.33.
Regarding YANGGHNYSYRGYGALSSNLQPPA [L6H], the protein stability index turned out to be 1.97.
For YANGGSNYSYRGYGALSSNLQPPA [L6S] the value was 1.65.
On to YANGGFNYSYRGYGALSSNLQPPA [L6F], for which the protein stability index was determined as 2.08.
As for YANGGQNYSYRGYGALSSNLQPPA [L6Q], the protein stability index was 1.55.
Regarding YANGGGNYSYRGYGALSSNLQPPA [L6G], the protein stability index is 1.73.
As for YANGGNNYSYRGYGALSSNLQPPA [L6N], the protein stability index came out at 1.47.
Take YANGGRNYSYRGYGALSSNLQPPA [L6R]: the protein stability index was found to be 2.1.
For YANGGYNYSYRGYGALSSNLQPPA [L6Y] the value was 2.47; for YANGGENYSYRGYGALSSNLQPPA [L6E], 1.97.
Turning to YANGGLNWSYRGYGALSSNLQPPA [Y8W], the protein stability index is 2.23.
In the case of YANGGLNESYRGYGALSSNLQPPA [Y8E], the protein stability index came to 2.13.
YANGGLNFSYRGYGALSSNLQPPA [Y8F]: the protein stability index stood at 1.73.
Then YANGGLNGSYRGYGALSSNLQPPA [Y8G], with 2.19.
For YANGGLNTSYRGYGALSSNLQPPA [Y8T] the value was 1.84.
For YANGGLNMSYRGYGALSSNLQPPA [Y8M] the value was 1.95; for YANGGLNHSYRGYGALSSNLQPPA [Y8H], 1.85.
For YANGGLNISYRGYGALSSNLQPPA [Y8I], the protein stability index turned out to be 2.15.
Take YANGGLNLSYRGYGALSSNLQPPA [Y8L]: the protein stability index was 1.94.
YANGGLNKSYRGYGALSSNLQPPA [Y8K]: the protein stability index stood at 1.83.
As to YANGGLNSSYRGYGALSSNLQPPA [Y8S], the protein stability index turned out to be 1.89.
Then YANGGLNCSYRGYGALSSNLQPPA [Y8C], with 2.22.
With YANGGLNASYRGYGALSSNLQPPA [Y8A], the protein stability index turned out to be 1.76.
As to YANGGLNQSYRGYGALSSNLQPPA [Y8Q], the protein stability index is 1.64.
Regarding YANGGLNNSYRGYGALSSNLQPPA [Y8N], the protein stability index came to 2.22.
For YANGGLNDSYRGYGALSSNLQPPA [Y8D] the value was 1.95; for YANGGLNPSYRGYGALSSNLQPPA [Y8P], 1.37; for YANGGLNVSYRGYGALSSNLQPPA [Y8V], 2.19.
For the variant YANGGLNRSYRGYGALSSNLQPPA [Y8R], the protein stability index was 2.04.
As for YANGGLCYSYRGYGALSSNLQPPA [N7C], the protein stability index came out at 2.1.
For YANGGLIYSYRGYGALSSNLQPPA [N7I] the value was 2.27; for YANGGLGYSYRGYGALSSNLQPPA [N7G], 3.08; for YANGGLLYSYRGYGALSSNLQPPA [N7L], 3.75.
Then YANGGLQYSYRGYGALSSNLQPPA [N7Q], with 2.08; and YANGGLVYSYRGYGALSSNLQPPA [N7V], with 1.15; and YANGGLEYSYRGYGALSSNLQPPA [N7E], with 2.52.
Then YANGGLAYSYRGYGALSSNLQPPA [N7A], with 2.81.
YANGGLHYSYRGYGALSSNLQPPA [N7H]: the protein stability index was determined as 3.47.
Then YANGGLTYSYRGYGALSSNLQPPA [N7T], with 1.2; and YANGGLFYSYRGYGALSSNLQPPA [N7F], with 3.66; and YANGGLMYSYRGYGALSSNLQPPA [N7M], with 2.76.
Then YANGGLSYSYRGYGALSSNLQPPA [N7S], with 2.38; and YANGGLPYSYRGYGALSSNLQPPA [N7P], with 2.47; and YANGGLRYSYRGYGALSSNLQPPA [N7R], with 1.52.
For YANGGLDYSYRGYGALSSNLQPPA [N7D] the value was 1.36.
As for YANGGLWYSYRGYGALSSNLQPPA [N7W], the protein stability index was found to be 2.86.
As for YANGGLYYSYRGYGALSSNLQPPA [N7Y], the protein stability index was found to be 2.53.
